Consider 3 molecules from patent US20130330359A1 (AbbVie / Abbott, published 2013).

The labels stand for the following.
T1: carrier free RGMc (R&D Systems) (human, UniProt Q6ZVN8 36-400)
T1 construct: also called RGMc-CF
T1 sequence (looked up): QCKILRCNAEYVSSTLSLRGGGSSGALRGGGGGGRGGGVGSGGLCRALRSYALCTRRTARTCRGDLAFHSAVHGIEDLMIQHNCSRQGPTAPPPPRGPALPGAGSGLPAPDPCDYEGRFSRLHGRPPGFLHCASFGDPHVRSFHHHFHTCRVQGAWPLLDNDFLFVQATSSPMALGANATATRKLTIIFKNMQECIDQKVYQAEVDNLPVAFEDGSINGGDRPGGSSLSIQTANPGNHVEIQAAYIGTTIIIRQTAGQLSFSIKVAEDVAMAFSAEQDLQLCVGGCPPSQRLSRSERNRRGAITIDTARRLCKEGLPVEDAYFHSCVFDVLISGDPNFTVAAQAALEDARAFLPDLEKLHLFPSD

T2: carrier free RGMa (R&D Systems) (UniProt Q96B86 48-422, limits assumed)
T2 construct: also called RGMa-CF
T2 sequence (looked up): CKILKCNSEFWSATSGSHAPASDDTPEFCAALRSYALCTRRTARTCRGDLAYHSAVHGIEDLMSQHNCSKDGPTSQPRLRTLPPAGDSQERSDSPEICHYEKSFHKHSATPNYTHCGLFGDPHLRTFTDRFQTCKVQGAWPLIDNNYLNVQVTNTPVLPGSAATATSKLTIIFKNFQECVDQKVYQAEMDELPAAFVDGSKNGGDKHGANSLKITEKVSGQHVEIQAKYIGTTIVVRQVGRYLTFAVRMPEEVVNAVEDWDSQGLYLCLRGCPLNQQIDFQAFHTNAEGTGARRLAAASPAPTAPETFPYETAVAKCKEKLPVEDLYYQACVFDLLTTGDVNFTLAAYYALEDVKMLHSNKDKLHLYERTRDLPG

T3: carrier free RGMb (R&D Systems) (UniProt Q6NW40 46-413, limits assumed)
T3 construct: also called RGMb-CF
T3 sequence (looked up): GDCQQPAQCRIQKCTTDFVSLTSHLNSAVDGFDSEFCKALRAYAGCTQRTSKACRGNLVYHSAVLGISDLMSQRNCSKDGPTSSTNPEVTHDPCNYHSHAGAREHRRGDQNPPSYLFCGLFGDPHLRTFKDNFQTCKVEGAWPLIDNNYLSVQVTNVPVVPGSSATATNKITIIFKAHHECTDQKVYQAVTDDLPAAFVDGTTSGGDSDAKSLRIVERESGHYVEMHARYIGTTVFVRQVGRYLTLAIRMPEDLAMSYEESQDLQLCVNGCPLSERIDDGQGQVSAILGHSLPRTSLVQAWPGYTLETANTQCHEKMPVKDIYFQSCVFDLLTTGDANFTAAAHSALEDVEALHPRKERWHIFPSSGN

B1: 1A-2860-475 (antibody, V domains shown)
VH: DVLLQESGPDLVKPSQSLSLTCTVTGYSISSGYSWHWIRQFPGNKLEWMAYIHYTGNTNYNPSLKSRISITRDTSKNQFFLHLNSVTTEDTATYYCALFGLSGFWGQGTLVTVSA
VL: DVLMTQTPLSLPVSLGDQASISCRSSQTIVHSNGNTYLDWYLQKPGQSPKVLIYKVSNRFSGVPDRFSGSGSGTDFTLKISRVEAEDLGVYFCLQGSHVPWTFGGGTQLEIKR
notes: The parent line 1A-2860 and subclone 1A-2860-177 used in the assays are treated here as the same antibody; also called 1A-2860-177
B2: 1B-3363-715 (antibody, V domains shown)
VH: DVQLQESGPDLVKPSQSLSLTCTVTGYSITSGYSWHWIRQFPGNKLEWMGYIHYSGNTDYNPSLKSRISFTRDTSKNQFFLQLNSVTTEDTATYFCAIGTGPWGQGTTLTVSS
VL: B1 VL with T28N, N35H, D39E, V51L, F92Y, L94F, Q108K
notes: The parent line 1B-3363 and subclone 1B-3363-502 used in the assays are treated here as the same antibody; also called 1B-3363-502
B3: 1A-2989-187 (antibody, V domains shown)
VH: EVQLQQSGAELVRSGASVKLSCTASGFNIRDFYIHWVKQRPEQGLEWLGWIDPENGDIEYAPKFQGKATMTADTSSNTAYLQLNSLTSEDTALYYCNGNGYYLDYWGQGTTLTVSS
VL: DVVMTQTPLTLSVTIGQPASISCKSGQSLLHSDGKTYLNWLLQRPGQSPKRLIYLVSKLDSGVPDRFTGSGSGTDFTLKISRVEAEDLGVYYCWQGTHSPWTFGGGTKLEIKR

Positions count from the first letter of the chain named.

One assay concerns the target T1, carrier free RGMc (R&D Systems). The experiment in a line: direct EIA: carrier-free RGMc coated at 0.5 ug/mL; supernatant diluted 1:125; goat anti-mouse IgG-HRPO. The protocol: (§1) Clones were then tested for cross-reactivity with RGMa and RGMb by EIA. Carrier free RGMa, RGMb, or RGMc (R&D Systems) was coated on the solid phase of micro-titer EIA plates at 0.5 ug/mL. After the antigen had been coated on the solid phase, it was removed and any open binding sites on the plates were blocked using fish gel block solution. The wells were washed with distilled water following this incubation. Cell supernatants and control reagents were added to the blocked plates and allowed to incubate at room temperature for at least one hour. The negative control was a purified mouse mAb from a different antigen system. The positive control for RGMa, RGMb, & RGMc was a goat anti-RGMa, RGMb, or RGMc polyclonal antibody (R&D Systems). Following this incubation, the solutions were removed from the plates and they were washed with distilled water. Donkey anti-Goat IgG-HRPO diluted to approximately 200 ng/mL in block solution was added to the plates with the positive control test samples and goat anti-mouse IgG-HRPO (Jackson Immunoresearch) diluted to approximately 200 ng/mL in block solution was added to the plates with the fusion #1 test samples. All plates were allowed to incubate for 30 minutes at room temperature. The plates were washed with distilled water and o-phenylenediamine substrate was used as the chromogen to generate signal. Plates were read at 492 nm and the results were analyzed.
As for B1, the “absorbance at 492 nm” value is 1.34.
On the same count and under the same terms, as for B2, the figure is 2.53.
Turning to B3, the “absorbance at 492 nm” value came out at 1.58.

The target of a further assay is T2, carrier free RGMa (R&D Systems). Put plainly: EIA on coated carrier-free RGMa (summary of specificity). As for the experimental part:
as §1
Turning to B1, the binding result was “no binding”.
As to B2, the binding result is on record as “no binding”.
Same read-out and setting: as for B3, the entry is “no binding”.

The next assay addresses T4, mouse:human chimeric antibody (used as human IgG / human IgG Fc antigen).
T4 construct: also called Hu IgG; human IgG Fc portion
The experiment in a line: direct EIA: mouse:human chimeric antibody coated at 1.0 ug/mL; supernatant diluted 1:125; goat anti-mouse IgG Fc-HRPO. As for the experimental part: A mouse:human chimeric antibody or RGMc-huFc was coated on the solid phase of micro-titer EIA plates at 1.0 ug/mL. After the antigen had been coated on the solid phase, it was removed and any open binding sites on the plates were blocked using BSA block solution. The wells were washed with distilled water. Cell supernatants and control reagents were added to the blocked plates and allowed to incubate at room temperature for at least one hour. The negative control was a purified mAb from a different antigen system. The positive control for human IgG was a purified anti-hu IgG mAb developed against another antigen containing human IgG Fc carrier protein. The RGMc positive control is Novus mab 1C12. Following this incubation, the solutions were removed from the plates and they were washed with distilled water. Goat anti-mouse IgG Fc-HRPO (Jackson Immunoresearch) diluted to approximately 200 ng/mL in block solution was added to the plates and allowed to incubate for 30 minutes at room temperature. The plates were washed with distilled water and o-phenylenediamine substrate (Abbott Laboratories) was used as the chromogen to generate signal. Plates were read at 492 nm and the results were analyzed.
As to B1, the “absorbance at 492 nm” value is 0.06.
For the molecule B2, the “absorbance at 492 nm” value came to 0.07.
B3: the “absorbance at 492 nm” value turned out to be 0.06.

In the next assay the target is T3, carrier free RGMb (R&D Systems). The experiment in a line: EIA on coated carrier-free RGMb (summary of specificity). The protocol:
as §1
B1: the binding result is listed as “no binding”.
Take B2: the binding result was “no binding”.
On the same count and under the same terms, to B3 belongs “no binding”.

The target of another assay is T2, carrier free RGMa (R&D Systems). Put plainly: direct EIA: carrier-free RGMa coated at 0.5 ug/mL; supernatant diluted 1:125; goat anti-mouse IgG-HRPO. As for the experimental part: as §1
With B1, the “absorbance at 492 nm” value is 0.08.
Still for that read-out and setting: to B2 belongs 0.09.
B3: the “absorbance at 492 nm” value was 0.07.

The target of the next assay is T3, carrier free RGMb (R&D Systems). Put plainly: direct EIA: carrier-free RGMb coated at 0.5 ug/mL; supernatant diluted 1:125; goat anti-mouse IgG-HRPO. As for the experimental part: as §1
As to B1, the “absorbance at 492 nm” value is 0.06.
The same measure, in the same setting: as for B2, the figure is 0.09; as for B3, 0.07.
